Drawing on PMC8699594, “Improving the Substrate Affinity and Catalytic Efficiency of β-Glucosidase Bgl3A from Talaromyces leycettanus JCM12802 by Rational Design” (Biomolecules, 2021), this text covers Km, kcat and kcat/Km for 6 molecules.

Where a chain is given by its changes, count along the chain named. Numbers in names are those of the source.

Data set [1] concerns the target T1, Bgl3A (Evansstolkia leycettana, UniProt A0A1B0VFN7).
T1 construct: no tag mentioned
The experiment in a line: p-nitrophenol release at […] nm, Michaelis-Menten fit. The settings on record: read-out: pNPG / Km; 75 °C, pH 4.5, Na2HPO4-citric acid buffer. It counts as biochemical.

For data set [2], the target named is T1, Bgl3A. The experiment in a line: glucose release (GOD-POD), Michaelis-Menten fit. Format: biochemical. The following applies: read-out: Cellobiose / Km; 75 °C, pH 4.5, Na2HPO4-citric acid buffer.
Substrate in the data set “purified protein”: O=[N+]([O-])c1ccc(O[C@@H]2O[C@H](CO)[C@@H](O)[C@H](O)[C@H]2O)cc1
The experiment in a line: purified protein. The following applies: 75 °C, pH 4.5, Na2HPO4-citric acid buffer.

T1 sequence (A0A1B0VFN7 entry or part of it): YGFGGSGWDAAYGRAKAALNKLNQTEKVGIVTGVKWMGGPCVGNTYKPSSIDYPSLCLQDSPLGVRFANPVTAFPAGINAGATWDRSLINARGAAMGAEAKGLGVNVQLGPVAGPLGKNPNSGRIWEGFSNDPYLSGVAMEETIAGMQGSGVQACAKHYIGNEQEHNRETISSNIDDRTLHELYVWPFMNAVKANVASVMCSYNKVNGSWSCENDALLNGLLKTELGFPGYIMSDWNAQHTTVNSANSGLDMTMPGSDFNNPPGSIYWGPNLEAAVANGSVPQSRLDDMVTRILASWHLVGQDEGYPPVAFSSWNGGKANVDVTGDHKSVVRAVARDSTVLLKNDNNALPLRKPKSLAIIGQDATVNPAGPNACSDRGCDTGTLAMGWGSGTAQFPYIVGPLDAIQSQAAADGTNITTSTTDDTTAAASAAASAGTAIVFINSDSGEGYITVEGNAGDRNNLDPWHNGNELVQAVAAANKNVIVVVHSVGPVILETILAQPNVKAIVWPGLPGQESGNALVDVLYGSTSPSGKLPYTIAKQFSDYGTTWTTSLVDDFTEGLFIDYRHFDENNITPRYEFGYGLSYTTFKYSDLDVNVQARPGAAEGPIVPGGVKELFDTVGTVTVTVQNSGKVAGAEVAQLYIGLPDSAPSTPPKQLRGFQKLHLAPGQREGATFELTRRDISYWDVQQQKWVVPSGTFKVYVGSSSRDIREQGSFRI

Turning to `O=[N+]([O-])c1ccc(O[C@@H]2O[C@H](CO)[C@@H](O)[C@H](O)[C@H]2O)cc1` [4-nitrophenyl β-D-glucopyranoside], at Bgl3A [1], the Km came out at 180 ± 30 µM.

In the case of `OC[C@H]1O[C@@H](O[C@H]2[C@H](O)[C@@H](O)C(O)O[C@@H]2CO)[C@H](O)[C@@H](O)[C@@H]1O` (some centres unmarked) [cellobiose], on Bgl3A [2], the Km amounted to 10400 ± 400 µM.

B1: Bgl3A (Evansstolkia leycettana; F86Y) (protein)
chain: YGFGGSGWDAAYGRAKAALNKLNQTEKVGIVTGVKWMGGPCVGNTYKPSSIDYPSLCLQDSPLGVRYANPVTAFPAGINAGATWDRSLINARGAAMGAEAKGLGVNVQLGPVAGPLGKNPNSGRIWEGFSNDPYLSGVAMEETIAGMQGSGVQACAKHYIGNEQEHNRETISSNIDDRTLHELYVWPFMNAVKANVASVMCSYNKVNGSWSCENDALLNGLLKTELGFPGYIMSDWNAQHTTVNSANSGLDMTMPGSDFNNPPGSIYWGPNLEAAVANGSVPQSRLDDMVTRILASWHLVGQDEGYPPVAFSSWNGGKANVDVTGDHKSVVRAVARDSTVLLKNDNNALPLRKPKSLAIIGQDATVNPAGPNACSDRGCDTGTLAMGWGSGTAQFPYIVGPLDAIQSQAAADGTNITTSTTDDTTAAASAAASAGTAIVFINSDSGEGYITVEGNAGDRNNLDPWHNGNELVQAVAAANKNVIVVVHSVGPVILETILAQPNVKAIVWPGLPGQESGNALVDVLYGSTSPSGKLPYTIAKQFSDYGTTWTTSLVDDFTEGLFIDYRHFDENNITPRYEFGYGLSYTTFKYSDLDVNVQARPGAAEGPIVPGGVKELFDTVGTVTVTVQNSGKVAGAEVAQLYIGLPDSAPSTPPKQLRGFQKLHLAPGQREGATFELTRRDISYWDVQQQKWVVPSGTFKVYVGSSSRDIREQGSFRI
A word on the kcat: it is the maximal rate divided by the concentration of active sites. One may read the kcat/Km as the second-order rate constant that governs catalysis at low substrate concentration. For B1, in the data set “purified protein”, the Km amounted to 240 ± 20 µM, the kcat was 1770 s⁻¹ and the kcat/Km was 7.45e+06 M⁻¹ s⁻¹.

B2: Bgl3A (Evansstolkia leycettana; M56N) (protein)
chain: B1 chain with M37N, Y67F
As for B2, in “purified protein”, the Km stood at 590 ± 70 µM, the kcat worked out at 1070 s⁻¹ and the kcat/Km was 1.79e+06 M⁻¹ s⁻¹.

B3: Bgl3A (Evansstolkia leycettana; E188Q) (protein)
chain: B1 chain with Y67F, E169Q
As for B3, in “purified protein”, the Km came out at 210 ± 30 µM, the kcat was 1740 s⁻¹ and the kcat/Km was found to be 8.39e+06 M⁻¹ s⁻¹.

B4: Bgl3A (Evansstolkia leycettana; M56E) (protein)
chain: B1 chain with M37E, Y67F
Turning to B4, in “purified protein”, the Km worked out at 250 ± 30 µM, the kcat worked out at 1800 s⁻¹ and the kcat/Km stood at 7.09e+06 M⁻¹ s⁻¹.
